Laboratory results as given in patent US20210355194A1 (TWIST BIOSCIENCE, published 2021).
Like-named read-outs stand apart in the source and are kept apart here.

B1: ACE2 variant antibody 3-12 (antibody, V domains shown)
VH: EVQLLESGGGLVQPGGSLRLSCAASGFTFRSHAMNWVRQAPGKGLEWVSAISGSGGSTNYADSVKGRFTISRDNSKNTLYLQMNSLRAEDTAVYYCARGLKFLEWLPSAFDIWGQGTLVTVSS
VL: DIQMTQSPSSLSASVGDRVTITCRTSQSINTYLNWYQQKPGKAPKLLIYGASNVQSGVPSRFSGSGSGTDFTLTISSLQPEDFATYYCQQSYRIPRTFGQGTKVEIK
B2: variant 6-3 (Fc fusion)
VHH: EVQLVESGGGLVQPGGSLRLSCAASGFTFSPSWMGWFRQAPGKEREFVATINEYGGRNYADSVKGRFTISADNSKNTAYLQMNSLKPEDTAVYYCARVDRDFDYWGQGTLVTVSS
B3: ACE2 variant antibody 4-61 (VHH)
VHH: EVQLVESGGGLVQPGGSLRLSCAASGRTFGDYIMGWFRQAPGKEREIVAAINWSADYTPYADSVKGRFTISADNSKNTAYLQMNSLKPEDTAVYYCATAPPNTGWHFDHWGQGTLVTVSS
B4: ACE2 variant antibody 4-95 (VHH)
VHH: EVQLVESGGGLVQPGGSLRLSCAASGRTFGDYIMGWFRQAPGKEREIVAAINWSAGYTAYADSVKGRFTISADNSKNTAYLQMNSLKPEDTAVYYCATAPPLFCWHFDHWGQGTLVTVSS
B5: variant 6-43 (Fc fusion)
VHH: EVQLVESGGGLVQPGGSLRLSCAASGRTFSSYAMMGWFRQAPGKEREFVASVNWDASQINYADSVKGRFTISADNSKNTAYLQMNSLKPEDTAVYYCTTLGAVYFDSSGYHDYFDYWGQGTLVTVSS
B6: variant 6-9 (Fc fusion)
VHH: EVQLVESGGGLVQPGGSLRLSCAASGFTFDYYAMGWFRQAPGKEREFVSAIDSEGRTSYADSVKGRFTISADNSKNTAYLQMNSLKPEDTAVYYCARWGPFDIWGQGTLVTVSS
B7: ACE2 variant antibody 4-52 (VHH)
VHH: EVQLVESGGGLVQPGGSLRLSCAASGRSFSNSVMGWFRQAPGKEREFVARITWNGGSTYYADSVKGRFTISADNSKNTAYLQMNSLKPEDTAVYYCATTENPNPRWGQGTLVTVSS
B8: ACE2 variant antibody 4-39 (VHH)
VHH: EVQLVESGGGLVQPGGSLRLSCAASGRTFSNAAMGWFRQAPGKEREFVARILWTGASRNYADSVKGRFTISADNSKNTAYLQMNSLKPEDTAVYYCATTENPNPRWGQGTLVTVSS
B9: ACE2 variant antibody 3-8 (antibody, V domains shown)
VH: EVQLLESGGGLVQPGGSLRLSCAASGFTFRSHAMSWVRQAPGKGLEWVSSISGGGASTYYADSVKGRFTISRDNSKNTLYLQMNSLRAEDTAVYYCARVKYLTTSSGWPRPYFDNWGQGTLVTVSS
VL: DIQMTQSPSSLSASVGDRVTITCRASQSIGKYLNWYQQKPGKAPKLLIYASSTLQRGVPSRFSGSGSGTDFTLTISSLQPEDFATYYCQQSLSTPFTFGQGTKVEIK
B10: ACE2 variant antibody 3-9 (antibody, V domains shown)
VH: EVQLLESGGGLVQPGGSLRLSCAASGFTFRSYAMSWVRQAPGKGLEWVSSISGGGASTYYADSVKGRFTISRDNSKNTLYLQMNSLRAEDTAVYYCARVKYLTTSSGWPRPYFDNWGQGTLVTVSS
VL: DIQMTQSPSSLSASVGDRVTITCRASQSIGKYLNWYQQKPGKAPKLLIYASSTLQRGVPSRFSGSGSGTDFTLTISSLQPEDFATYYCQQSFSTPFTFGQGTKVEIK
B11: ACE2 variant antibody 3-13 (antibody, V domains shown)
VH: EVQLLESGGGLVQPGGSLRLSCAASGFTITNYAMSWVRQAPGKGLEWVSGISGSGAGTYYADSVKGRFTISRDNSKNTLYLQMNSLRAEDTAVYYCARHTWWKGAGFFDHWGQGTLVTVSS
VL: DIQMTQSPSSLSASVGDRVTITCRASQSIGRYLNWYQQKPGKAPKLLIYAASSLKSGVPSRFSGSGSGTDFTLTISSLQPEDFATYYCQQSYSLPRTFGQGTKVEIK
B12: ACE2 variant antibody 4-56 (VHH)
VHH: EVQLVESGGGLVQPGGSLRLSCAASGFSLDYYGMGWFRQAPGKERESVAAISWNGDFTAYADSVKGRFTISADNSKNTAYLQMNSLKPEDTAVYYCAKRANPTGAYFDYWGQGTLVTVSS
B13: ACE2 variant antibody 4-25 (VHH)
VHH: EVQLVESGGGLVQPGGSLRLSCAASGGTFSRYAMGWFRQAPGKEREWVSAVDSGGSTYYADSVKGRFTISADNSKNTAYLQMNSLKPEDTAVYYCAASPSLRSAWQWGQGTLVTVSS
B14: variant 6-46 (Fc fusion)
VHH: EVQLVESGGGLVQPGGSLRLSCAASGLTFSAMGWFRQAPGKEREFVALIRRDGSTIYADSVKGRFTISADNSKNTAYLQMNSLKPEDTAVYYCAALGILFGYDAFDIWGQGTLVTVSS
B15: variant 6-81 (Fc fusion)
VHH: EVQLVESGGGLVQPGGSLRLSCAASGFIGNYHAMGWFRQAPGKEREFVAAVTWSGGTTNYADSVKGRFTISADNSKNTAYLQMNSLKPEDTAVYYCAREGYYYDSSGYPYYFDYWGQGTLVTVSS
B16: ACE2 variant antibody 4-57 (VHH)
VHH: EVQLVESGGGLVQPGGSLRLSCAASGLTFRNYAMGWFRQAPGKEREFVAAIGSGGYTDYADSVKGRFTISADNSKNTAYLQMNSLKPEDTAVYYCAVKPGWVARDPSQYNWGQGTLVTVSS
B17: ACE2 variant antibody 4-62 (VHH)
VHH: EVQLVESGGGLVQPGGSLRLSCAASGRTFSDDTMGWFRQAPGKEREFVAAINWSGGSTDYADSVKGRFTISADNSKNTAYLQMNSLKPEDTAVYYCATDPPLFWGQGTLVTVSS
B18: ACE2 variant antibody 4-69 (VHH)
VHH: EVQLVESGGGLVQPGGSLRLSCAASGRTFSDDAMGWFRQAPGKEREFVAAINWSGGTTRYADSVKGRFTISADNSKNTAYLQMNSLKPEDTAVYYCATDPPLFWGQGTLVTVSS
B19: ACE2 variant antibody 4-82 (VHH)
VHH: EVQLVESGGGLVQPGGSLRLSCAASGRTFGDYAMGWFRQAPGKEREFVAAINWSGGYTRYADSVKGRFTISADNSKNTAYLQMNSLKPEDTAVYYCATDPPLFWGQGTLVTVSS
B20: ACE2 variant antibody 4-76 (VHH)
VHH: EVQLVESGGGLVQPGGSLRLSCAASGRTFGDYAMGWFRQAPGKERELVAPINWSGGSTYYADSVKGRFTISADNSKNTAYLQMNSLKPEDTAVYYCATDPPLFWGQGTLVTVSS
B21: ACE2 variant antibody 4-63 (VHH)
VHH: EVQLVESGGGLVQPGGSLRLSCAASGRTFSDYTMGWFRQAPGKEREFVAAINWSGGYTYYADSVKGRFTISADNSKNTAYLQMNSLKPEDTAVYYCATDPPLFWGQGTLVTVSS
B22: ACE2 variant antibody 4-78 (VHH)
VHH: EVQLVESGGGLVQPGGSLRLSCAASGRTFSDDTMGWFRQAPGKEREFVAGMTWSGSSTFYADSVKGRFTISADNSKNTAYLQMNSLKPEDTAVYYCATDPPLFWGQGTLVTVSS
B23: ACE2 variant antibody 4-75 (VHH)
VHH: EVQLVESGGGLVQPGGSLRLSCAASGRTFGDDTMGWFRQAPGKEREFVAAINWTGGYTPYADSVKGRFTISADNSKNTAYLQMNSLKPEDTAVYYCATDPPLFWGQGTLVTVSS
B24: ACE2 variant antibody 4-67 (VHH)
VHH: EVQLVESGGGLVQPGGSLRLSCAASGRTFSDDTMGWFRQAPGKEREFVAAINWSGDSTYYADSVKGRFTISADNSKNTAYLQMNSLKPEDTAVYYCATDPPLFWGQGTLVTVSS
B25: ACE2 variant antibody 4-74 (VHH)
VHH: EVQLVESGGGLVQPGGSLRLSCAASGLTFSDDTMGWFRQAPGKEREFVAAVSWSGGNTYYADSVKGRFTISADNSKNTAYLQMNSLKPEDTAVYYCATDPPLFWGQGTLVTVSS

Tests used:
ACE2 [1] = molecular target: T1, ACE2 (human, UniProt Q9BYF1 18-740)
T1 sequence (Q9BYF1 18-740 limits assumed): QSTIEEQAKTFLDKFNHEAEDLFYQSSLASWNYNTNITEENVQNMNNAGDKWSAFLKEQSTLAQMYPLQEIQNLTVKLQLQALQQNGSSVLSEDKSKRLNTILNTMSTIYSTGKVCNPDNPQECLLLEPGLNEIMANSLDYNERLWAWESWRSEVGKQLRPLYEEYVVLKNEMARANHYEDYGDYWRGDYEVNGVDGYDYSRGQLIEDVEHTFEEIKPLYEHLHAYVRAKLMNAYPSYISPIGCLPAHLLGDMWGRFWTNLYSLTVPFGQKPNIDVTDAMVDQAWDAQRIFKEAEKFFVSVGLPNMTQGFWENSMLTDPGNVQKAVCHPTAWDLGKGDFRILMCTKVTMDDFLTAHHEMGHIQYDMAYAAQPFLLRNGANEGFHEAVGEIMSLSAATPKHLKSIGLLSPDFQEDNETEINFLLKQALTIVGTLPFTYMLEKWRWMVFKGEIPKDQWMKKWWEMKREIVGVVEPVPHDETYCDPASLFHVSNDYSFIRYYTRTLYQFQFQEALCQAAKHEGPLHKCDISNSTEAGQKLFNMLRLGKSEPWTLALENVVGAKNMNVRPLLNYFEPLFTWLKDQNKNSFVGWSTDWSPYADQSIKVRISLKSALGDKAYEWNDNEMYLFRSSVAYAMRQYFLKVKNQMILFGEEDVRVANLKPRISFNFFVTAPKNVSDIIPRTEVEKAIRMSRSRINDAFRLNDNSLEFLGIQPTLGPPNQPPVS

ACE2 [2] = molecular target: T1, ACE2; remark: listed apart in the source
[3] = molecular target: T2, Acro SARS-CoV-2 (COVID-19) S1 protein (SARS-CoV-2, UniProt P0DTC2 16-685); assay: SPR
T2 construct: also called SARS-CoV-2 S1

| Binder | koff (ACE2 [1]) | kon (ACE2 [1]) | Kd (ACE2 [2]) | koff (ACE2 [2]) | kon (ACE2 [2]) | Kd [3] |
| --- | --- | --- | --- | --- | --- | --- |
| B1 | 0.00649 s⁻¹ | 15500 M⁻¹ s⁻¹ | 420 nM | 0.00649 s⁻¹ | 15500 M⁻¹ s⁻¹ |  |
| B2 |  |  |  |  |  | 12.4 nM |
| B3 | 0.00286 s⁻¹ | 348000 M⁻¹ s⁻¹ | 8.2 nM | 0.00286 s⁻¹ | 348000 M⁻¹ s⁻¹ |  |
| B4 | 0.00772 s⁻¹ | 415000 M⁻¹ s⁻¹ | 18.6 nM | 0.00772 s⁻¹ | 415000 M⁻¹ s⁻¹ |  |
| B5 |  |  |  |  |  | 17.9 nM |
| B6 |  |  |  |  |  | 18.5 nM |
| B7 | 0.00149 s⁻¹ | 126000 M⁻¹ s⁻¹ | 11.8 nM | 0.00149 s⁻¹ | 126000 M⁻¹ s⁻¹ |  |
| B8 | 0.0137 s⁻¹ | 136000 M⁻¹ s⁻¹ | 101 nM | 0.0137 s⁻¹ | 136000 M⁻¹ s⁻¹ |  |
| B9 | 0.00509 s⁻¹ | 114000 M⁻¹ s⁻¹ | 44.6 nM | 0.00509 s⁻¹ | 114000 M⁻¹ s⁻¹ |  |
| B10 | 0.00569 s⁻¹ | 83600 M⁻¹ s⁻¹ | 68 nM | 0.00569 s⁻¹ | 83600 M⁻¹ s⁻¹ |  |
| B11 | 0.0102 s⁻¹ | 80900 M⁻¹ s⁻¹ | 126 nM | 0.0102 s⁻¹ | 80900 M⁻¹ s⁻¹ |  |
| B12 | 0.00237 s⁻¹ | 130000 M⁻¹ s⁻¹ | 18.2 nM | 0.00237 s⁻¹ | 130000 M⁻¹ s⁻¹ |  |
| B13 | 0.00303 s⁻¹ | 78700 M⁻¹ s⁻¹ | 38.5 nM | 0.00303 s⁻¹ | 78700 M⁻¹ s⁻¹ |  |
| B14 |  |  |  |  |  | 18.1 nM |
| B15 |  |  |  |  |  | 12.9 nM |
| B16 | 0.00239 s⁻¹ | 307000 M⁻¹ s⁻¹ | 7.8 nM | 0.00239 s⁻¹ | 307000 M⁻¹ s⁻¹ |  |
| B17 | 0.00365 s⁻¹ | 245000 M⁻¹ s⁻¹ | 14.9 nM | 0.00365 s⁻¹ | 245000 M⁻¹ s⁻¹ |  |
| B18 | 0.00256 s⁻¹ | 99400 M⁻¹ s⁻¹ | 25.8 nM | 0.00256 s⁻¹ | 99400 M⁻¹ s⁻¹ |  |
| B19 | 0.00333 s⁻¹ | 301000 M⁻¹ s⁻¹ | 11.1 nM | 0.00333 s⁻¹ | 301000 M⁻¹ s⁻¹ |  |
| B20 | 0.00428 s⁻¹ | 135000 M⁻¹ s⁻¹ | 31.8 nM | 0.00428 s⁻¹ | 135000 M⁻¹ s⁻¹ |  |
| B21 | 0.00105 s⁻¹ | 610000 M⁻¹ s⁻¹ | 1.7 nM | 0.00105 s⁻¹ | 610000 M⁻¹ s⁻¹ |  |
| B22 | 0.00263 s⁻¹ | 247000 M⁻¹ s⁻¹ | 10.7 nM | 0.00263 s⁻¹ | 247000 M⁻¹ s⁻¹ |  |
| B23 | 0.00478 s⁻¹ | 299000 M⁻¹ s⁻¹ | 16 nM | 0.00478 s⁻¹ | 299000 M⁻¹ s⁻¹ |  |
| B24 | 0.00214 s⁻¹ | 93900 M⁻¹ s⁻¹ | 22.8 nM | 0.00214 s⁻¹ | 93900 M⁻¹ s⁻¹ |  |
| B25 | 0.00285 s⁻¹ | 248000 M⁻¹ s⁻¹ | 11.5 nM | 0.00285 s⁻¹ | 248000 M⁻¹ s⁻¹ |  |
